Here are results for six substances from US8080523.

One may read the pKd as −log10 of the Kd, conventionally taken in molar units. Low values mean a large Kd, high ones a small Kd.

pKd: −log10 of the molar value. Like-named read-outs stand apart in the source and are kept apart here.

Assay [1] concerns the target Kv1.2. As to the kind of experiment: patch-clamp, block of channel current.
In assay [2] the target is Kv1.6. As to the kind of experiment: patch-clamp, block of channel current. For orientation: Patch clamp records ionic current or voltage across a cell membrane.
Assay [3] addresses Kv3.2. As to the kind of experiment: patch-clamp, block of channel current.
The target in assay [4] is Kv1.2. Nature of the assay: patch-clamp, ratio of Kd values; reference margatoxin on Kv1.3.
The target in assay [5] is Kv1.6. The description is as above.
The target in assay [6] is Kv3.2. The assay is described as above.
Assay [7] addresses Kv1.3 (cloned) (UniProt P16390).
Assay [8] shares this target. This is another data set of the same source.
Assay [9] addresses Kv1.1 (Mus musculus (Mouse)) (UniProt P16388). Nature of the assay: patch-clamp, ratio of Kd values; reference ShK(L6) on Kv1.3.
The next assay concerns the target Kv1.1 (UniProt P16388).

Chain of Kv1.6 (P17658 whole entry): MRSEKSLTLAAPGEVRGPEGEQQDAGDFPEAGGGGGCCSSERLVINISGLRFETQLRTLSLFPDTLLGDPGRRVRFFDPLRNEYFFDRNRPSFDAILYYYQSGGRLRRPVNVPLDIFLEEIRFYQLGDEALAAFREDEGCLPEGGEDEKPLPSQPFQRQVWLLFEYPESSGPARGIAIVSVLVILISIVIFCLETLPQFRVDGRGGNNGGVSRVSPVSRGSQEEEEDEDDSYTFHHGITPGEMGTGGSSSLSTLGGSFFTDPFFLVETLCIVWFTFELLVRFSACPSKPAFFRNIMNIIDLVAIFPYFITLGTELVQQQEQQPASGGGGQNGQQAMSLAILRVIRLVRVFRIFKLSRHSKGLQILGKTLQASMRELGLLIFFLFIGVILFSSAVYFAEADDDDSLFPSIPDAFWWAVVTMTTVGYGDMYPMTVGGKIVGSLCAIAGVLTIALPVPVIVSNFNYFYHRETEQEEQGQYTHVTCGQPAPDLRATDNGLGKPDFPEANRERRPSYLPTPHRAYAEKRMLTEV
Chain of Kv3.2 (P22462 whole entry): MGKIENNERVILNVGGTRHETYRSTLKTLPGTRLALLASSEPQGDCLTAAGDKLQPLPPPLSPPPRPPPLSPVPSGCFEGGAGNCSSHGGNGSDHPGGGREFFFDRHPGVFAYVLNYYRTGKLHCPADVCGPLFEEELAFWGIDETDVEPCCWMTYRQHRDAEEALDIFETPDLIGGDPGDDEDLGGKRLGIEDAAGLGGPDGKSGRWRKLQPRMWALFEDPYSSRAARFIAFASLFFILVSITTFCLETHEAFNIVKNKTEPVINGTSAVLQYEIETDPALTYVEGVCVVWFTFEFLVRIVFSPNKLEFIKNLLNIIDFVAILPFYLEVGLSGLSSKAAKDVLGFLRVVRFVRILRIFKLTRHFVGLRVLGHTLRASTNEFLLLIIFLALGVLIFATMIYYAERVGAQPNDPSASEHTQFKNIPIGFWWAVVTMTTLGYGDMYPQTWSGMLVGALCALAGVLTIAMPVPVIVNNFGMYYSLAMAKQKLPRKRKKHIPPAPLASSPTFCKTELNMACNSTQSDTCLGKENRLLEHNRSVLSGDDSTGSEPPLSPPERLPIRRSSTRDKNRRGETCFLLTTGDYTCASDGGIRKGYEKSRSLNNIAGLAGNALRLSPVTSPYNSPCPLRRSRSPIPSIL
Chain of Kv1.2 (P63142 whole entry): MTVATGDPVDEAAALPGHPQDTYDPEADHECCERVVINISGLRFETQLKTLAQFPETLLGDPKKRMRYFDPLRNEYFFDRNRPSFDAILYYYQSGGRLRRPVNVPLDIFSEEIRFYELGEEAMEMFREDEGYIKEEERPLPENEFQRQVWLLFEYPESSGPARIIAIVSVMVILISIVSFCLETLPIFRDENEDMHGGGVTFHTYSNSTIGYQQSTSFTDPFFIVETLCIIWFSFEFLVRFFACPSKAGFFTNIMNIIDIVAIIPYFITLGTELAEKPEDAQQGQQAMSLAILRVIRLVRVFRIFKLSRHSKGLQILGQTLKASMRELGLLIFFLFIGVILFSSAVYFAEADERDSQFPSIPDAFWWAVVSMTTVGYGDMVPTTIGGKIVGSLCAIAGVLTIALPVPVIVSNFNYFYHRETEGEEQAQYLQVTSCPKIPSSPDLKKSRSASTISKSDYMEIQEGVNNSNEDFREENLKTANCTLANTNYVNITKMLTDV
Chain of Kv1.1 (P16388 whole entry): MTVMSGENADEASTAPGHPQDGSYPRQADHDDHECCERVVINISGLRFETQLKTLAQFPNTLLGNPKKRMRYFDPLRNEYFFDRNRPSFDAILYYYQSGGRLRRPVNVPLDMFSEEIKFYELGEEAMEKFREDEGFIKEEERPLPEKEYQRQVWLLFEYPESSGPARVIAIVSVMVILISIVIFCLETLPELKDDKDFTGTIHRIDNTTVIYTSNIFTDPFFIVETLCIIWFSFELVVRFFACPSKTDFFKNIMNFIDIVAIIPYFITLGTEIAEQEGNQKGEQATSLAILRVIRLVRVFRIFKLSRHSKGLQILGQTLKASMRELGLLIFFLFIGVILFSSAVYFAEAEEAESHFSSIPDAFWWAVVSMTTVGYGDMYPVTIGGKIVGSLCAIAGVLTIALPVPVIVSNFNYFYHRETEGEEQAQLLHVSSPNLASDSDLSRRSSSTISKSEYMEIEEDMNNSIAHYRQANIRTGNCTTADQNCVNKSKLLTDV
Chain of Kv1.1 (Mus musculus (Mouse)) (P16388 whole entry): as above

As for “Margatoxin (from UniProt P40755 1-39) (peptide)”, the pKd was 9.28 with Kv1.2 [1], < 7.00 in the assay with Kv1.6 [2] and < 7.00 in the assay with Kv3.2 [3]. Also, the fold selectivity for Kv1.3 over this channel in the assay with Kv1.2 [4] was 5 fold; in the assay with Kv1.6 [5] it was > 1000 fold; with Kv3.2 [6], > 1000 fold.
As for ShK toxin (peptide), the pKd in the assay with Kv1.2 [1] was 8.00; in the assay with Kv1.6 [2], 9.70; in the assay with Kv3.2 [3] it was 8.30.
As for ShK(D5), the pKd with Kv1.3 (cloned) [7] is 8.96.
In turn, ShK(L6) had a pKd with Kv1.3 (cloned) [8] of 11.00.
Consider ShK(L6) (peptide), for which the fold selectivity for Kv1.3 over this channel in [9] was determined as 11 fold.
As for ShK-F6CA, in the assay with Kv1.1, the pKd is 8.40.
